The target in assay [1] is 6His-NS5 RdRp(270-900) of DENV-2 NGC strain (DENV-2 NGC strain). The experiment in a line: ELISA.
Assay [2] deals with NHS-NS5(270-900): 6His-NS5 RdRp(270-900) labelled with RED-NHS (DENV-2 NGC strain). The experiment in a line: MST.

Consider NS3(566-585) peptide of DENV-2, for which the IC50 (commonly the concentration that inhibits the measured activity by half) in assay [1] came to 127 µM.

Consider “6His-NS3(177-618), helicase portion of NS3 (domain or fragment)”, for which, in assay [2], the Kd (in general, the free concentration of one partner at which half of the binding sites on the other are occupied at equilibrium, for simple one-to-one binding) is 7.2 µM.

The values above are taken from publication PMC12615485, “New dengue virus inhibitors targeting NS3-NS5 interaction identified by in silico screening” (Frontiers in Microbiology, 2025).
